Test: soluble on expression in E. coli; label from the status in PepcDB or PDB records

Sequence	soluble on expression in E. coli
MPQTPPFPVMYGSTNGYNKNLYKAKEEDYEGLYYHDNNLISGSLEALIEHLVPTVAYYPDRTYIFTFLLSSRLFLHPYELMSKVCHLCVDQQRLSDPQADKARVRKIAPKILQLLTEWTETFPYDFRDERMMKSLKELTHRLSTGEDLYRKAVQQMTQTLIRKLTTLSQYEEALAKINSSVTDRLTVLKTKPQSIQRDILTICNDPFTLAQQLTHIELERLSYIGPEEFVQAFVQKDPLDNDKNCFSDHKKASNLEAYVEWFNRLSYLVATEICMPVKKKHRARVIEFFIDVARECFNIGNFNSLMAIITGMNMSPVSRLKKTWAKVKTAKFDILEHQMDPSSNFYNYRTALRGATQRSITAHSSREKIVIPFFSLLIKDIYFLNEGCANRLPNGHVNFEKFWGLAKQVTEFMTWKKVECPFDRDRKILQYLLTAPVFSEDALYLASYESEGPENNMEKDRWKSLRSSLLNRT	soluble
MSLVTLKDIAAEAGVSIMTVSNVINGNHSKVSKNTIEKIEKIIQKYNYVPNLTARSLTAKSSKIIGIIVPIKGSFNNLFKDPYISELFGIIQNVVRENGYYLMVRSVKDVSDISALLKNWNMDGAIFLMPDYDNLIYSILKENKLPMVFLDSYSKIDNIISVGINDYKGGYIATRYLINNGHRKILFAGPCHKDGIPIPQIIKRLEGYKDALLESNIEFNESLIVDVEPNYEVGINLGRSICNKEFDVTAVFTTADIMGIGIIEGAKLNGKIVPNDLSVIGFDNLLPSVYVTPKLTTISQDIESKATKAVDLLIEYIEKGSVSNNKITLDVELVERQSVGQLSNEGHHHHHH	soluble
MSLGQVEVIDRRQSVFGDDIQLQKRSSSYEIISNGVFLMSTENGRSEREMVTLGAQHMKNAVHSVLIGGLGVGITADEAVHLNDHVQVHVVEIEPSVVEWQYRYLYPFSNQALEHERTAIIISDIQQWLRTNERTYDLICLDTDNGPDWMVHKQNASLYGKIGLELVRERVRVGGAVSFWSASASESFLHELETLFDRVYEHAVSISHTLPPDYVYVACREGHHHHHH	not soluble
MGSDKIHHHHHHMKIDRLIGIITILLQKERATIPQLAERFEVSCRTIQRDIDAIGQAGIPIVSRQGYGGGLSIADGYKLDKTVLTKKELQAILTGIRSIDSISKTTYGQTLIEKFANGKAAVLAEQDMILIDLASWYQDSLSDKIEQLRQAIFNREKVFFVYYSDKGESERLIEPYLILFKWAAWYVYGYCLTKNEYRLFKLNRLWKLKNTNLTYIPRNIPEGKLEFERYFQTEEIRLTALFDARAKYRLIEEYGPECFTVSEPDKLLFQRSFSNPEYLLQWLLSFGDRVRVIEPPELKANIQEHAKNMLRQDD	not soluble
TLAAKAAEIHPTSLDTRLDVAAAPAELQQVAQSFNAMLERLDDGYQRLQQFSADLAHEIRTPIGSLMGHGQVALRQPRSNEEYQALIASNQEELERIARMVESILFLARADDVRAAVERSRLDLGEELRRQAEYFEGLAEERGLSLDVQVSGQLRADPQLFRRALSNLLANAIRYASADSLIEVRGLRRSGEFLLSVENACDRLPAEPLSRLFDRFYRGDAARSDAQSSGLGLAIVQAIMRLHGGRAEASAPAPGRIRFDLAFPAQD	not soluble
MRGSHHHHHHTDPALRANITPFPTLSPATIDAINVIGQWLAQDDFSGEVPYQADCVILAGNAVMPTIDAACKIARDQQIPLLISGGIGHSTTFLYSAIAQHPHYNTIRTTGRAEATILADIAHQFWHIPHEKIWIEDQSTNCGENARFSIALLNQAVERVHTAIVVQDPTMQRRTMATFRRMTGDNPDAPRWLSYPGFVPQLGNNADSVIFINQLQGLWPVERYLSLLTGELPRLRDDSDGYGPRGRDFIVHVDFPAEVIHAWQTLKHDAVLIEAMESRSLRGLCGR	soluble
MAMNLPADNEGKIKLAMSILVTIINDTGVPRNIRRAAANALTHLRDPRLSPAVRAANAISALEEVSQDPNMPFYARTRIWQVITILETVRD	not soluble
MHSEKSVMMEPMTNPKNDPRNPDLLLDFEEVEFTRGGKTLVGPITWQVELDERWVILGPNGAGKTTLIRMAAAEEFPSKGALWIMGERIGKTDMRDLRAMIGVSSSALGNRIPTNEKVLDLVISAGYAILGRWREEYDKWDHDRAIEILEQVGAYHLADQTWGTLSEGERKRVLVARALMTNPELLLLDEPTAGMDLGGREDLVGYLAQLAMDPDAPAMVMITHHVEEIPAGFTHALLLDEGEVVSQGLIDEVLTSANLTKAFHQPIKVDKIDGRYFARRQRTARSHRR	not soluble
MGSDKIHHHHHHMQFERISTEQKKLSLIQTFLHQNALKLDEQIEYFVVGYNDNEQIVVCGGLAGNIIKCVAIDESLRGSGVALQLITELVDLAYTLKRPHLFIYTKPEYATLFKSCGFYIISDANPYVVLLENSATRLQKQCSLWEKMRVDGNRIGSIVMNANPFTLGHRYLIEQALQQCDHLHLFIVGEDASQFSYTERFEMIQQGIFDLSNITLHSGSDYIISRATFPNYFLKDQLITDESYFEIDLKLFRLHIAQALGITHRFVGTELNCPVTAEYNRQMHYWLMDAEMNAPKINVIEIPRKTASNHIISASTVRKHLAEKNWAQLAEFVPMTTLNYLQKCGRF	not soluble
SASLDRVKVLVLGDSGVGKSSLVHLLCQNQVLGNPSWTVGCSVDVRVHDYKEGTPEEKTCYIELWDVGGSVGSASSVKSTRAVFYNSVNGIIFVHDLTNKKSSQNLRRWSLEALNRDLVPTGVLVTNGDYDQEQFADNQIPLLVIGTKLDQIHETKRHEVLTTTAFLAEDFNPEEINLDCTNPRYLAAGSSNAVKLSRFFDKVIEKRYFLREGNQIPGFPDRKRFGAGTLKSLHYD	soluble
MPVKRSLKLDGLLEENSFDPSKITRKKSVITYSPTTGTCQMSLFASPTSSEEQKHRNGLSNEKRKKLNHPSLTESKESTTKDNDEFMMLLSKVEKLSEEIMEIMQNLSSIQALEGSRELENLIGISCASHFLKREMQKTKELMTKVNKQKLFEKSTGLPHKGQPQMSQPLLEHHHHHH	soluble
MGSDKIHHHHHHPSLTCVMEGKDIEDWSCCPTPWTSFQSSCYFISTGMQSWTKSQKNCSVMGADLVVINTREEQDFIIQNLKRNSSYFLGLSDPGGRRHWQWVDQTPYNENVTFWHSGEPNNLDERCAIINFRSSEEWGWNDIHCHVPQKSICKMKKIYI	not soluble
MSTPHTPKPGPRPGAVPGPRPGAHAARKVVAPNVSAMNQARAFGRVDDDGTVYLIRGGETKKIGSWQAGTPEEGLQHYIHRFEDLATEVALLESRLKSHPNDASHIKEKAGEIRDGLDDAAIIGDLDSLEKRLNSIIDGADSAGEKARELKQQLQEKAIEQKQKLVAEAEEIAEKSTDWKVAGDRIREILDEWKTIKGIDRKTDDELWKLYSRARDSFNRRRGSHFAELDRGRAAARRIKEDLVEKANILKESTDWNDTAHAFKELMNEWKAAGRAPRDVDDKLWAAFKGAQDYFFNARNAVNDQRDREFAANAEAKDALIDEYTPLIDPAQGLESAREKLRELQEKWEAIGYVPRNRVREYEEKIANLEKRVTEAADAQWRRTDPAAQARAAQFISKVEEFTAQAAEAEVKGNTKKAEQLRAQAQQWQEWADAAINAVENR	not soluble
LAEGKEIPCFALTSPEAGSDAGSIPDYGVVTKGMWEGEEVVGMRITWNKRYITLAPVATVLGLAFKLQDPDGLLGDKKDLGITCALIPTDLDGVKIGRRHFPLNVPFQNGPTQGNDLFVPLDYIIGG	not soluble
MFRNNYDGDTVTFSPTGRLFQVEYALEAIKQGSVTVGLRSNTHAVLVALKRNADELSSYQKKIIKCDEHMGLSLAGLAPDARVLSNYLRQQCNYSSLVFNRKLAVERAGHLLCDKAQKNTQSYGGRPYGVGLLIIGYDKSGAHLLEFQPSGNVTELYGTAIGARSQGAKTYLERTLDTFIKIDGNPDELIKAGVEAISQSLRDESLTVDNLSIAIVGKDTPFTIYDGEAVAKYI	soluble
MSLPLSKTLVQKLQQAGMAIANNQPQIKFTPLSISDEKGKVALDLNIALVPNPKFDLMHSGLYKQFKDFSINFDVNKETAISLLSKFVPENQKQDLVYRMDELIAEGEANGIIVNTDKTVTLTLALENNDLKLNGKPIPEEQLKVVLFILVMGGFGREGHHHHHH	soluble
MATFKDFRNNVKPNWCPGCGDFSVQAAIQKAAANIGLEPEEVAIITGIGCSGRLSGYINSYGVHSIHGRALPLAQGVKMANKDLTVIASGGDGDGYAIGMGHTIHALRRNMNMTYIVMDNQIYGLTKGQTSPSSAVGFVTKTTPKGNIEKNVAPLELALSSGATFVAQGFSSDIKGLTKLIEDAINHDGFSFVNVFSPCVTYNKINTYDWFKEHLTSVDDIENYDSTDKQLATKTVIEHESLVTGIVYQDKETPSYESQIKELDDTPLAKRDIKITEDTFNALTEQFI	not soluble
MGSDKIHHHHHHMVSIRKSLLQFVFAGSYMKRWNDKLRPVELLEVDKQAHKMIVAWLLYQQNSDDLDDTSRLRLGSDIIEGGIFDYFYRLVITDIKPPVFYRIKDNAQHYAQLSAWVLDELEPLVQPLGEDFWGRMRGWVQRPEKNSRADRILDAAHLFASNWEFRLIESLNRFDDEIEDIGASFDAKLAGFDDLKGMDSLRHATGAVGRFAALCGQLRFQKRWSQTPRIPETSVLGHMFLVACYSYFFSLAVNACGARRQNNFFIGLFHDLPELLTRDIISPVKKSVEELDAVIKEYEEAELRRKVLNPLEEEGFGGIAARLSYYLGLEVGSEFTEAVVDNGNVLAVDFELLQSRYNHDRFDPRDGRMLKTCDTLAAFIEAYTAVRNGISSDQLQAALWRLRDKNRRTVIGPVHVGALFADFD	not soluble
MRISGVTLFRVSSQLRNVVNGQWTTTHYTVKDRSTDPRWKDVDLARESDVYDVVIVGGGPSGLSAAIRLRQLAEKAQKELRVCVVEKASVIGGHTLSGAVIETRALDELIPNWKELGAPVYQQVTSESIAILTESGRIPVPVLPGVPLANHGNYIVRLGKVVQWLGEQAEAAGVEVWPEIAASEVLYNEDGSVKGIATSDVGIGKDGAPKDGFARGMEFHAKCTIFAEGCRGHLSKQVLDKFDLRTHAMTYGIGLKELWEIDPAKHRPGYVEHTMGWPLNVDQYGGSFLYHIEDQGQPLVSVGFVVALDYANPNLNPYKEFQKYKTHPSISKQLEGGKRIGYGARALNEGGFQSIPKLHFPGGCLVGCSAGFLNVAKLKGTHNAMKSGMVAAESIFEDIQQKGEDVQTIDPATYDKNIRDTYVVKELKATRNIRPSFNTSLGYIGGLIYSGIFYVFGRGIEPWTLGHGKKDNEKLIPVKDAKEIDYPKPDGKLTFDLLTSVSLTGTNHTEDQPAHLTLKNDQVPLDVNLAVYGGPEARFCPAGVYEFVPSEADESKKRLQINAQNCIHCKTCDIKDPQQNINWVTPEGGGGPKYEGM	not soluble
MGSDKIHHHHHHMNLEQILLAISNPNDNELTIAGLEAAKVNWSVFYPELERLMDQFIADDTSLTDEQEAIVFFGTLLLAELKYSPALAKCLQLFARSDTYLTPIEAIFGDALTELTATLFFNVADGSTQTLSDYIVDGHQAMYCKASAIEAVFAQYEVGVIDKTELVEHVTRWLAAFLALPSSNNSFLISVLADSCIKYQLDDFKPQFIDLCDNDLFDEDRFKQCEVKAWDKANAAKLIESGNIQTKFNVVDTLNAWIVDDSNNEVADNMSNEDSDAFESLMGEDGLLADILYDENTILENSVPVSSLPTAGRNDPCPCGSGKKYKKCCLR	not soluble
MDNCNAWDKLLSQNESTINSTETATITAIIYSPSSKTLHQFINICFPEGSNSILDTTLINYATIGWTNDLKENYSVDVYTLIRNTDDALDLLKPFLQEHSSKVRWLILLDWTLNDQKLWLNELSYAFNKIKQLNDDNEFSVWCLNSGEILNLQRHTTVWQSVHIDFILQTLRSFCYFNDSSLFYICEDHTEEKREEAQRLKYQELLKHFCEDRDMKDHIEMVKRSEILIPKGCDSIGLIKTVDERFEPTEVKEQHFLARYMDFIPTIDKIREDRKTTSGIDLDKLYPLEVFKVNIQEELGKMFAKYRENSRI	soluble
MKQGTVKWFNAEKGFGFIEVEGENDVFVHFSAINQDGYKSLEEGQAVEFEVVEGDRGPQAANVVKL	not soluble
